Measurements as given in PMC10438457 (Science Advances, 2023).

T1: MBP-UFL1 (UniProt O94874 1-794)
T1 sequence: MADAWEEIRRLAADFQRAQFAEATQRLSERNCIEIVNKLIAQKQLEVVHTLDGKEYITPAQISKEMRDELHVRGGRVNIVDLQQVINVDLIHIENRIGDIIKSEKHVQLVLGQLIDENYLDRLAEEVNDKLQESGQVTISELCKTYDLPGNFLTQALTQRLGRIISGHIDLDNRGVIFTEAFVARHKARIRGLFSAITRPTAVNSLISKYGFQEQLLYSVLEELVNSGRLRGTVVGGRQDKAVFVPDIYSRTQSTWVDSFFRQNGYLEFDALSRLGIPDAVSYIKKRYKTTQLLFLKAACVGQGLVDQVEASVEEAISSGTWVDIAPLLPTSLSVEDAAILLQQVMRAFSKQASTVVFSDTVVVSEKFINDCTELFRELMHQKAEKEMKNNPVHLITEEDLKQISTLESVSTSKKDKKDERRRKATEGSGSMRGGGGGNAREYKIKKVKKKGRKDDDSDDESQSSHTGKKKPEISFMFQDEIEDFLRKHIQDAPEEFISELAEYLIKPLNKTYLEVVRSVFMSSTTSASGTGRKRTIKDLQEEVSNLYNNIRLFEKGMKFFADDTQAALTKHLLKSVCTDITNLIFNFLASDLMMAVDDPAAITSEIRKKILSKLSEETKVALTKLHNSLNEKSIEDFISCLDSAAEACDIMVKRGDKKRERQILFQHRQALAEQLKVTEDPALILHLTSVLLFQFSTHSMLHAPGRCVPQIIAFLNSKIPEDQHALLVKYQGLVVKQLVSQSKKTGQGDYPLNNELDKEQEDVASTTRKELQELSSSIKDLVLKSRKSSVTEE

B1: GST-CDK5RAP3 (natural protein)
chain: MEDHQHVPIDIQTSKLLDWLVDRRHCSLKWQSLVLTIREKINAAIQDMPESEEIAQLLSGSYIHYFHCLRILDLLKGTEASTKNIFGRYSSQRMKDWQEIIALYEKDNTYLVELSSLLVRNVNYEIPSLKKQIAKCQQLQQEYSRKEEECQAGAAEMREQFYHSCKQYGITGENVRGELLALVKDLPSQLAEIGAAAQQSLGEAIDVYQASVGFVCESPTEQVLPMLRFVQKRGNSTVYEWRTGTEPSVVERPHLEELPEQVAEDAIDWGDFGVEAVSEGTDSGISAEAAGIDWGIFPESDSKDPGGDGIDWGDDAVALQITVLEAGTQAPEGVARGPDALTLLEYTETRNQFLDELMELEIFLAQRAVELSEEADVLSVSQFQLAPAILQGQTKEKMVTMVSVLEDLIGKLTSLQLQHLFMILASPRYVDRVTEFLQQKLKQSQLLALKKELMVQKQQEALEEQAALEPKLDLLLEKTKELQKLIEADISKRYSGRPVNLMGTSL
B2: UFC1 (recombinant, GST tag cleaved) (enzyme)
chain: MADEATRRVVSEIPVLKTNAGPRDRELWVQRLKEEYQSLIRYVENNKNADNDWFRLESNKEGTRWFGKCWYIHDLLKYEFDIEFDIPITYPTTAPEIAVPELDGKTAKMYRGGKICLTDHFKPLWARNVPKFGLAHLMALGLGPWLAVEIPDLIQKGVIQHKEKCNQ

What was measured:
MBP-UFL1 = target: T1, MBP-UFL1; experiment: pull-down
GST-CDK5RAP3 = target: B1; experiment: pull-down
[1] = target: B2; experiment: ITC

Binder: B1
- binding result (MBP-UFL1): binds

Binder: B2
- binding result (GST-CDK5RAP3): binds

Binder: MADAWEEIRRLAADFQRAQFA [UFL1 (1-21), UFC1-binding sequence peptide]
- Kd [1]: 410 nM
